B3: Sema3A fused in frame with alkaline phosphatase (sema3A-AP) (ligand)
chain: NYQNGKNNVPRLKLSYKEMLESNNVITFNGLANSSSYHTFLLDEERSRLYVGAKDHIFSFDLVNIKDFQKIVWPVSYTRRDECKWAGKDILKECANFIKVLKAYNQTHLYACGTGAFHPICTYIEIGHHPEDNIFKLENSHFENGRGKSPYDPKLLTASLLIDGELYSGTAADFMGRDFAIFRTLGHHHPIRTEQHDSRWLNDPKFISAHLISESDNPEDDKVYFFFRENAIDGEHSGKATHARIGQICKNDFGGHRSLVNKWTTFLKARLICSVPGPNGIDTHFDELQDVFLMNFKDPKNPVVYGVFTTSSNIFKGSAVCMYSMSDVRRVFLGPYAHRDGPNYQWVPYQGRVPYPRPGTCPSKTFGGFDSTKDLPDDVITFARSHPAMYNPVFPMNNRPIVIKTDVNYQFTQIVVDRVDAEDGQYDVMFIGTDVGTVLKVVSIPKETWYDLEEVLLEEMTVFREPTAISAMELSTKQQQLYIGSTAGVAQLPLHRCDIYGKACAECCLARDPYCAWDGSACSRYFPTAKRRTRRQDIRNGDPLTHCSDLHHDNHHGHSPEERIIYGVENSSTFLECSPKSQRALVYWQFQRRNEERKEEIRVDDHIIRTDQGLLLRSLQQKDSGNYLCHAVEHGFIQTLLKVTLEVIDTEHLEELLHKDDDGDGSKTKEMSNSMTPSQKVWYRDFMQLINHPNLNTMDEFCEQVWKRDRKQRRQRPGHTPGNSNKWKHLQENKKGRNRRTHEFERAPRSV

Assays:
[1] = biological target: the molecule itself; assay: SDS-PAGE with and without reducing agent, western blot
[2] = biological target: B3; assay: alkaline phosphatase fusion binding to cells
[3] = biological target: neuropilin-1 (NRP-1) on parental U87MG cells (human (endogenous in U87MG), UniProt O14786 22-923); assay: alkaline phosphatase fusion binding to cells
neuropilin-1 (NRP-1) on parental U87MG cells, sequence (O14786 22-923): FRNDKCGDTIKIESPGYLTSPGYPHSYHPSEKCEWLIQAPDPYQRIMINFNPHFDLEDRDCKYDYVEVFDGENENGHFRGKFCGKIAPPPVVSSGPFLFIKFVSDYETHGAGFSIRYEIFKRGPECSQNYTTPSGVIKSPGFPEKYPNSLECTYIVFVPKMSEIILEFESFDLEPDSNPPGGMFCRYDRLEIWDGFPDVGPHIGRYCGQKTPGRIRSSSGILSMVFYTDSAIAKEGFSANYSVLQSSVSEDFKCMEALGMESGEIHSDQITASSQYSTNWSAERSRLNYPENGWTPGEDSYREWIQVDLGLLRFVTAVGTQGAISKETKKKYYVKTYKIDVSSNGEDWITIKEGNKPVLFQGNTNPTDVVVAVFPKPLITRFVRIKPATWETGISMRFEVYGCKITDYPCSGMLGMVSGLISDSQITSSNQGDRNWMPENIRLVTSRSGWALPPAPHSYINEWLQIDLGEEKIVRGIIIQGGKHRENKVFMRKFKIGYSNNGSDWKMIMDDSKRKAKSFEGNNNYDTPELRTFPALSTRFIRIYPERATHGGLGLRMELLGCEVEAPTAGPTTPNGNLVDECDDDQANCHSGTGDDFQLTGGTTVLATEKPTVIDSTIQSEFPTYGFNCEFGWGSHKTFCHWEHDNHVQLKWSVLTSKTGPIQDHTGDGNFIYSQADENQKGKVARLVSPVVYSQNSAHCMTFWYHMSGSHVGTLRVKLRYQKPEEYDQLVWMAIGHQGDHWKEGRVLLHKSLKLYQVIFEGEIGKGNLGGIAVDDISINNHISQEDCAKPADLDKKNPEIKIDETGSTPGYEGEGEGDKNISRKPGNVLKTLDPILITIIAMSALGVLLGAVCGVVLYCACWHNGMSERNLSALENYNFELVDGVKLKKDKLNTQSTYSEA

B1: modified truncated sema3A (T-sema3A) (ligand)
chain: NYQNGKNNVPRLKLSYKEMLESNNVITFNGLANSSSYHTFLLDEERSRLYVGAKDHIFSFDLVNIKDFQKIVWPVSYTRRDECKWAGKDILKECANFIKVLKAYNQTHLYACGTGAFHPICTYIEIGHHPEDNIFKLENSHFENGRGKSPYDPKLLTASLLIDGELYSGTAADFMGRDFAIFRTLGHHHPIRTEQHDSRWLNDPKFISAHLISESDNPEDDKVYFFFRENAIDGEHCGKATHARIGQICKNDFGGHRSLVNKWTTFLKARLICSVPGPNGIDTHFDELQDVFLMNFKDPKNPVVYGVFTTSSNIFKGSAVCMYSMSDVRRVFLGPYAHRDGPNYQWVPYQGRVPYPRPGTCPSKTFGGFDSTKDLPDDVITFARSHPAMYNPVFPMNNRPIVIKTDVNYQFTQIVVDRVDAEDGQYDVMFIGTDVGTVLKVVSIPKETWYDLEEVLLEEMTVFREPTAISAMELSTKQQQLYIGSTAGVAQLPLHR
In the case of B1, the “stoichiometry N” value [1] is reported as 2.

B2: CD72 fused with a V5 epitope tag, expressed in U87MG-ΔNRP-1-CD72+ cells (receptor)
chain: MAEAITYADLRFVKAPLKKSISSRLGQDPGADDDGEITYENVQVPAVLGVPSSLASSVLGDKAAVKSEQPTASWRAVTSPAVGRILPCRTTCLRYLLLGLLLTCLLLGVTAICLGVRYLQVSQQLQQTNRVLEVTNSSLRQQLRLKITQLGQSAEDLQGSRRELAQSQEALQVEQRAHQAAEGQLQACQADRQKTKETLQSEEQQRRALEQKLSNMENRLKPFFTCGSADTCCPSGWIMHQKSCFYISLTSKNWQESQKQCETLSSKLATFSEIYPQSHSYYFLNSLLPNGGSGNSYWTGLSSNKDWKLTDDTQRTRTYAQSSKCNKVHKTWSWWTLESESCRSSLPYICEMTAFRFPD
For B2, the Kd [2] was roughly 7.62 nM.

With B3 the Kd [3] was roughly 4.73 nM.
